Laboratory results as given in patent publication US20250195685A1 (CAPSTAN THERAPEUTICS, published 2025).

B1: CBD1017ch whole antibody (chimeric CT8 antibody) (antibody, V domains shown)
VH: EVQLQQSGPELVKPGASVKISCKASRYTFTDYNLHWVKLSHEKSLEWIGFIYPYNGGTGYNQKFKNKAKLTVDYSSSTAYMELRSLTSVDAAVYYCARDHRYNEGVSFDYWGQGTTLTVSS
VL: NIVLTQSPASLAVSLGQRATISCRASESVDGFGNSFMNWYQQKPGQSPKLLIYLASNLESGVPARFSGSGSRTDFTLTIDPVEADDAATYYCQQNNEDPYTFGGGTKLEIK
notes: Chimeric antibody comprising the variable regions of the donor antibody CT8; detected with anti-human Fc
B2: CBD1033 whole antibody, human IgG1 with Fc-silencing mutations L234A, L235A and P329A (CBD1033-hIgG1-LALAPA) (antibody, V domains shown)
VH: QVQLVQSGAEVKKPGASVKVSCKASRYTFTDYNLHWVRQAPGQGLEWMGFIYPYNGGTGYAQKFQGRVTMTVDTSTSTAYMELSSLRSEDTAVYYCARDHRYNEGVSFDYWGQGTTVTVSS
VL: DIQLTQSPSSLSASVGDRATITCRASESVDGFGNSFMNWYQQKPGKAPKLLIYLASNLESGVPSRFSGSGSGTDFTLTISSVQPEDFATYYCQQNNEDPYTFGQGTKLEIKR
notes: On tLNPs the antibody was SATA-modified or AJICAP-thiolated (CBD1033.29) and conjugated to the LNP; also called CBD1033.3; CBD1033 IgG1

Columns and labels:
[1] = target: T1, human CD8αα homodimer, recombinant protein (Acro Biosystems) (human, UniProt P01732 22-182); experiment: BLI steady state, whole hIgG1-LALAPA antibody on CD8α-His (Ni-NTA sensor), 30 °C
T1 construct: also called CD8αα antigen; biotinylated CD8α recombinant protein (CDA-H82E3)
T1 sequence (P01732 22-182 limits assumed): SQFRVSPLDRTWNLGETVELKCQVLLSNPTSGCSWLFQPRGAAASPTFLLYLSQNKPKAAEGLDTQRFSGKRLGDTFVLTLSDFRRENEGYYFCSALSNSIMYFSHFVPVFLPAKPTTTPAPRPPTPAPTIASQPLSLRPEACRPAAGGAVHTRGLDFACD
Protocol: (§1) To assess affinity of whole antibodies, steady state analysis was used as the bivalent nature of both whole antibody and CD8α complicates kinetic analysis. 50 nM CD8α-His (that is, CD8α with a C-terminal oligohistidine tag; Acro) was immobilized on Ni-NTA sensor probes. Binding was analyzed with a three-fold antibody dilutions series: 60 nM, 20 nM, 6.67 nM, 2.22 nM, 0.74 nM, and 0.25 nM. The antigen-loaded sensors were incubated in the diluted solutions to capture the whole IgG antibody for 300 s to record the association phase. Sensors were incubated in the kinetic buffer for 900 s to record the dissociation phase. The spin speed was 1000 rpm for all steps except the antigen loading step which was 400 rpm to control density of the antigen. The temperature of the performed assays was at 30° C. during the association and dissociation phases. The sensor data were baseline subtracted and further analyzed in GatorOne software (version 2.10) to determine the equilibrium dissociation constants (KD) of the antibodies by fitting the signals of the steady states to the 1:1 binding model.

[2] = target: T1, human CD8αα homodimer, recombinant …; experiment: BLI steady state analysis, whole antibody, sample stressed at pH 8.5, 40 °C, 3 days
Protocol: as §1

[3] = target: T2, human CD8 on cells (CD8-overexpressing HEK293T cells, SupT1, HPB-ALL, human T cells, transfected HEK293 of … (human, UniProt P01732 22-235)); experiment: flow cytometry on HPB-ALL cells; HPB-ALL cells
T2 construct: whole, on cells; also called cell surface CD8
T2 sequence (P01732 22-235): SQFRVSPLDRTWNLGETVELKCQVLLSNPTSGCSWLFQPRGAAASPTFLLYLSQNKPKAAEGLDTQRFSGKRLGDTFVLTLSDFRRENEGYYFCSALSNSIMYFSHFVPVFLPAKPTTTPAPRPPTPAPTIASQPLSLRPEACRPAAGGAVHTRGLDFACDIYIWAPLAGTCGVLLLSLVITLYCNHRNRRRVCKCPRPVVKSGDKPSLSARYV
Protocol: To obtain the results shown in FIG. 6, SupT1 (ATCC #CRL-1942) and HPB-ALL (DSMZ; ACC-483) were cultured in RPMI medium supplemented with 10% Fetal Bovine Serum (#97068-085; Avantor). To determine EC₅₀ values of cell binding from the anti-CD8α antibody, 2×10⁵ total cells were transferred to a V bottom 96-well culture plate (Corning). Cells were washed twice with Cell Staining buffer (#420201, Biolegend). The anti-CD8α antibody was diluted in four-fold antibody titration series from 60 μg/mL to […] into Cell Staining buffer. Cells were stained with each diluted antibody solution for 30 minutes on ice. Cells were then washed three times with Cell Staining buffer and primary antibody binding was detected by staining with anti-human Fc BV421 conjugate antibody (#410704, Biolegend) at 1:200 dilution for 30 minutes on ice. eFluor 780 Fixable Viability dye (eBioscience) at a 1:4000 dilution were also included in the detection antibody solutions. […] Flow cytometry data was analyzed by Flowjo 10 (Becton, Dickinson & Company) to measure the geometric median fluorescence intensity (gMFI) of the on-cell binding from each antibody. The gMFI values were normalized with the gMFI measured in the sample stained with only the secondary detection antibody and plotted against the concentration of the added antibodies. […]

[4] = target: T1, human CD8αα homodimer, recombinant …; experiment: BLI steady state analysis of the data of FIG. 2D
Protocol: The global fitting was performed with a 1:1 fitting model using GatorOne software as described below.
as §1

insulin (Sigma) = target: T3, insulin (Sigma); experiment: polyreactive ELISA, insulin coated, 100 nM antibody
T3 construct: Antigen of the polyreactivity ELISA
T3 sequence (P01308 25-54, chain 1 of 2): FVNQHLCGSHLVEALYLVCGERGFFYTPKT
T3 sequence (P01308 90-110, chain 2 of 2): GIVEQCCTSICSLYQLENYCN
Protocol: Insulin ([…]; Sigma) and dsDNA ([…]; Sigma) were coated onto 96-well high-binding ELISA microplates (Corning) at 50 μL per well overnight at 4° C. Plates were blocked with PBS with 0.5% BSA (blocking buffer) at room temperature (RT) for 1 h, followed by three washes with PBST (PBS with 0.1% Tween-20). 50 μL of 100 nM antibody in blocking buffer was added to each well and incubated at RT for 1 h, followed by six washes with 100 μL of PBS. 50 μL of diluted anti-human IgG-horseradish peroxidase (HRP) conjugate (Jackson ImmunoResearch) was added to the wells and incubated for 1 h followed by another six washes. Finally, 50 μL of 3, 3′, 5, 5′-Tetramethylbenzidine (TMB) substrate (Fisher Scientific) was added to each well to develop the detection signal. The reactions were stopped by adding 50 μL of 2 M sulfuric acid to each well. The absorbance was measured at 450 nm using a multimode microplate reader. Ustekinumab as the control antibody with low polyreactivity and bococizumab as a highly polyreactive antibody control were also included in the polyreactive ELISA assessment.
The first assessment tested for low non-specific binding to dsDNA and insulin by ELISA. […] Thus, by this standard, none of the tested antibodies were polyreactive.

[5] = target: T1, human CD8αα homodimer, recombinant …; experiment: BLI, whole antibody
[6] = target: T1, human CD8αα homodimer, recombinant …; experiment: BLI, whole antibody, steady state dissociation constant (column head x10^-9M)
Protocol: as §1

Binder	Kd [1] [nM]	Kd [2] [nM]	EC50 [3] [µg/mL]	Kd [4] [nM]	polyreactivity ELISA score (insulin (Sigma))	koff [5] [s⁻¹]	kon [5] [M⁻¹ s⁻¹]	Kd [6] [nM]
B1	0.58							
B2		1.71	0.274	2.27	1	0.00307	1.85e+06	1.43
